The source of these data is the nanobody polyreactivity screen of Harvey et al. (2022).

The nature of the data set: yeast display, Sf9 membrane polyspecificity reagent, FACS + sequencing; frameworks hold sequencing errors. Summed up:
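A nanobody's polyreactivity label depends on the gate it was sorted from. Yeast display cells were stained with 10% biotinylated, detergent-solubilized Sf9 membrane reagent for 1 hour at 4 °C, enriched on streptavidin microbeads and sorted by FACS. The low and high (top ~1%) gates were set on anti-HA fluorescence for expression and streptavidin fluorescence for reagent binding.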
Take “HVQLVDSGGVLVQAGGSLRLSCAASGSIYDANAMGRYRQAPGKERELVAAISSSGGITYYADSVKGRFTISRDNAKNTVYLQMNSLKPEDTAVYYCVAEYGYIDYSYLFWSDYWGQGTQVTVSS”: the “polyreactivity (PSR sort gate)” value is recorded as “high polyreactivity”.

Turning to “QVQLVESGGGLVQAGGSLRLSCAASGYIFGQNARGLYRQAPGKERELGASMSDGGSTYYADSVKGRFTISRDNAKNTVYLQLNSLKPEDTAVYYCAAYYSYGSTSHTYTCFDYWGQGTQVTVSS”, the “polyreactivity (PSR sort gate)” value is given as “low polyreactivity”.

Consider “QVQLVESGGGLVQAGGSLRLSCAASGFTIYNYAMGWYRQAPGKERELVAAISWSGGSTHYADSVKGRFTISRDNAKNTVYLQMNSLKPEDTAVYYCAKVGVLVYYTYYYWGQGTQVTVSS”, for which the “polyreactivity (PSR sort gate)” value is “low polyreactivity”.

As to “QVQLVESGGGLVQAGGSLRLSCAASGRTFYYYAMGWYRQAPGKEREFVAAIRFSGGNTYYADSVKGRFTISRDNAKNTVYLQMNSLKPVDTAVYYCAARRLLYKYWTGGPYDYWGQGTQVTVSS”, the “polyreactivity (PSR sort gate)” value is reported as “high polyreactivity”.

Regarding “QVQLVESGGGLVQAGGSLRLSCAASGRIFVVNAMGWYRQAPGKERELVAAISSSSDSTYYADSVKGRFTISRDNAKNTVYLQMNSLKPEDTAVYYRAADYHYDGYWIYDYWGLGTQVTVSS”, the “polyreactivity (PSR sort gate)” value was “high polyreactivity”.

For “QVQLVESGGGLVQAGGSLRLSCAASGSNFFVYAMGWYRQAPGKERELVASIRWRGSSTYYADSVKGRFTISRDNAKNPVYLQMNSLKPEDTAVYDCAATSYNGYGYWGQGTQVTVSS”, the “polyreactivity (PSR sort gate)” value is given as “high polyreactivity”.

For the sequence “QVQLVESGGGLVQAGGSLRLSCAASGSTFHPYAMGWYIQAPGKERELVAAITWRVGSTYYADSVKGRFTISRDNAKNTVYLQMNSLKPEDTAVFYCAVSYLSSLGRSRYDYWGQGTQVTVSS”, the “polyreactivity (PSR sort gate)” value is “low polyreactivity”.

As for “QVQLVESGGGLVQAGGSLRLSCAASGIIFGQNAMGWYRQAPGKERELVAAITISGGSTYYADSVKGRFTISRDNAKNTVYLQMNSLKPEDTAVYYCAARRVTWKDIARGYRYGYWGQGTQVTVSS”, the “polyreactivity (PSR sort gate)” value is “low polyreactivity”.

With “QVQLVESGGGLVQAGGSLRLSCAASGSILDSNAMGWYRQAPGKERELVAAITSGGSTYYADSVKGRFTISRDNAMNSVYLQMNSLKPEDTAVYYCAAAYLGYGAVQPSYEGGYWGQGTQVTVSS”, the “polyreactivity (PSR sort gate)” value is listed as “low polyreactivity”.

“QVQLVESVGGLVQAGGSLRLSCAASGFTFRHYVMGWYRQQPGKERELVAAIDVRGGSTYYADSVKGRFTISRDNAKNTVYLQMNSLKPEDTAVYYCAKRLIPRLPNLQKMDYWGQGTQVTVSS”: the “polyreactivity (PSR sort gate)” value was “low polyreactivity”.

Consider “QVQLVESGGGLVQAGGSLRLSCAASGRTFYTYAMGWYRQAPGKERELVAAISSGGSTYYADSVKGRFTISRDNAKNTVYLQMNSLKPEDTAVYYCAARYSKRVWYGYWGQGTQVTVSS”, for which the “polyreactivity (PSR sort gate)” value is recorded as “high polyreactivity”.

On to “QVQLVESGGGLVQAGGSLRLSCAASGGTFGKYTMGWSRQAPGKERELVAAINKSGGSTYYADSVKGRFTISRDNAKNTVYLQMNSLKPEDTAVYYCAAGTYFLSREYNYWGQGTQVTVSS”, for which the “polyreactivity (PSR sort gate)” value is reported as “low polyreactivity”.

As to “QVQLVESGGGLVQAGGSLRLSCAASGSTLPYYAMGWYRQAPGKERELVAAITSSGGDTYYADSVKGRFTISRDNAKNTVYFQMNSLKPEDTAVYYCAKSYSARSTVRKLFYFAYDYWGQGTQVTVSS”, the “polyreactivity (PSR sort gate)” value is “low polyreactivity”.

“QVHLVESGGGLVQAGGSLRLSCASTGFTFSRNTMGWYRQPPGKERELVARISASGGSTYYADSVKGRFTISRDNAKNTVYLQMNSLKPEDTAVYYCAAEGFYRSSPVRTYIGYDYWGQGSQVTVSS”: the “polyreactivity (PSR sort gate)” value is reported as “high polyreactivity”.

In the case of “QVQLVETGGGLVQAGGSLRLSCAASGSIFHPYGIGSYRQGPGKERELVAAITSSGGDTYYADSVKGRFTISRDNSKNTVYLQINSLKPEDTAVYYCAATGLPGYYAYDYWGQGTQVTVSS”, the “polyreactivity (PSR sort gate)” value was “low polyreactivity”.

Consider “QVQLVESGGALVQAGGSLRLICAASGGTFTNYAMGWYSQAPGKERELVAAITDSGATTYYADSVKGRFTNSRDNAKNTVYLQMNSLKPEDTAVYYCNAELDLYTDFDYWGQGTQVTVSS”, for which the “polyreactivity (PSR sort gate)” value is “low polyreactivity”.

Consider “HVQLVESGGGLVQAGGSLRISCAASGRTFYKNAKGRYRQAPGKEREFVASISVSGGRTYYADSVKGRFTISRDNAKNTVYLQMNILNPEDSAVYYCNARASPLSQRDYWGQGTQVTVSS”, for which the “polyreactivity (PSR sort gate)” value is recorded as “low polyreactivity”.

In the case of “QVQLVESGGGLVQAGGSLRLSCAASGLIFGWYAMGWYRQAPGKEREFVASIRYGGGSTYYADSVKGRFTISRDNAKKTVYLQMNSLKPEDTAVYYCAAELSVDKYDYWGQGTQETVSS”, the “polyreactivity (PSR sort gate)” value is reported as “low polyreactivity”.

Consider “QVQLQESGGGLAQAGGSLRLSCAASGTIFPADSMGWYRQAPGKERELVAGITSGANTYYADSVKGRFTISHDNAKYTVYLQMDSLIPEDIAVYYCAAPGSSTYDLEYWGQGTQVTVSS”, for which the “polyreactivity (PSR sort gate)” value is on record as “high polyreactivity”.

Take “QVQLVESGGGLVQAGGSLRLSCAASGLIFGRYAMGWYRPAPGKERELVAAITNSDGDTYYADSVKGRFTISRDNAKNTVYLQMNSLKPEDTAVYYCNADDALRQTSDYNYWGQGTQVTVSS”: the “polyreactivity (PSR sort gate)” value was “low polyreactivity”.

“QVQLVESGGGLVQAGGSLSLSCAASGSIFAYKAMGWYRQAPGKEREFVAVITRSDDSTYADSVKGRFTISRDNAKNNVYLQMNSLKPEDTAVYYCAVVANYVYSKYDYWGQGTQVTVSS”: the “polyreactivity (PSR sort gate)” value is listed as “low polyreactivity”.

“QVQLVESGGGLVQAGGSLRLSRAASGFTFPAYTMGWYRQAPGKERELVAAITSSGGNTYYADSVKGRFTISRDNAKHTVYLQMNSLKPEDTAVYYCATVSVRWPSNDHVRYDYWGQGTQVTVSS”: the “polyreactivity (PSR sort gate)” value was “low polyreactivity”.

Regarding “QVQLVESAGGLVQAGGSLRLSCAASGSIFERNVIGWYRRAPGKERELVPRISTSGGSTTYYADSVKGRFTISRDTAKNTVYLQMNSLKPEDTAVYYCAAGRGYWWWYGYDYWGQGTQVTVSS”, the “polyreactivity (PSR sort gate)” value is on record as “low polyreactivity”.

“QVQLVESGGGLVQAGGSLRLSCAASGNIFYTNAMGWYRQAPGKERELVATISRSVGSTYYADSVKGRFTISRDNAKNTVYLQMNSLKPEDTAVYYCAASRLLSALTAYSWGFNYWGQGSQVTVSS”: the “polyreactivity (PSR sort gate)” value is recorded as “high polyreactivity”.

Consider “QVQLVESGGGLVQAGGSLRLSCAASGNIFCINTMGWYRQAPGKERELVAAIDASDGSTYYADSVKGRFTISRDNAKNTVYLQMNSLKPEDTAVYYCATRSGYDSVYYFYTLWYYYWGQGTQVTVCS”, for which the “polyreactivity (PSR sort gate)” value is on record as “low polyreactivity”.

Consider “QVQLVESGGGLVQAGGSLRLSCAASGSTFTTYAMGWYRQAPGKERELVAAISIRGGRTYYADSVKGRFTISRDNAKNTVYLQMNSLKPEDTAVYYCAAETYYAVSTGYDFDYWGQGTQVTVSS”, for which the “polyreactivity (PSR sort gate)” value is listed as “high polyreactivity”.

On to “QVQLVESGGGLVQAGGSLRLSCAASGRTFYVNAMGWYRQAPGKERELVARISSSGITYYADSVKGRFTISRDNAKNTVYLQMNSLKPEDTAVYYCAAEYRSYSTLNRKFWYSPEYDYWGQGTQVTVSS”, for which the “polyreactivity (PSR sort gate)” value was “low polyreactivity”.

For “QVQLVESGGGLVQAGGSLRLSCAASGRIFIAYAMGWYRQAPWKEREFVAAISSRGGSTYYADSVKGRFTISRDNAKNTVYLQMNSLKPEDTAVYYCGAWTLYWSHTTWSYDYWGQGTQVTVSS”, the “polyreactivity (PSR sort gate)” value is given as “low polyreactivity”.

As to “QVQLVESGGGLVQAGGSLRLSCAASGFTFWYYAMGWYRQAPGKERELVARITSRGADTYADSVKGRFTISRDNAKNTVYLQMNSLKPEDTAVYDCNADIISVSVYYFIVEYDYWGQGTQVTVSS”, the “polyreactivity (PSR sort gate)” value is “low polyreactivity”.

Turning to “QVQLVESGGGLVQAGGSLRLSCAASGRIFPYNVMGWYRQAPGKERELVAAISWSGGRTYYADSVKGRFTISRDNAKKTVYLQMNSLKPEDTAVYYCNTRTLVAMGYWGQGTEVTVSS”, the “polyreactivity (PSR sort gate)” value is listed as “high polyreactivity”.
